Test results from patent US20130059772A1, “Use of Repeat Sequence Protein Polymers in Personal Care Compositions” (DANISCO US INC., priority 2003, published 2013).

B1: SELP47E-3: SELP variant, 3 subunits, lysine substituted by glutamic acid (SEQ ID NO:28) (protein)
chain: MDPVVLQRRDWENPGVTQLNRLAAHPPFASDPMGAGAGSGAGAGSGVGVPGVGVPGVGVPGVGVPGEGVPGVGVPGVGVPGVGVPGAGAGSGAGAGSGAGAGSGAGAGSGVGVPGVGVPGVGVPGVGVPGEGVPGVGVPGVGVPGVGVPGAGAGSGAGAGSGAGAGSGAGAGSGVGVPGVGVPGVGVPGVGVPGEGVPGVGVPGVGVPGVGVPGAGAGSGAGAGSGAGAMDPGRYQDLRSHHHHHH
modifications: SELP 47E-3
B2: SELP58: SELP variant, 13 subunits (SEQ ID NO:31) (protein)
chain: MDPVVLQRRDWENPGVTQLNRLAAHPPFASDPMGVGVPGVGVPGVGVPGVGVPGVGVPGVGVPGVGVPGVGVPGAGAGSGAGAGSGAGAGSGAGAGSGAGAGSGVGVPGVGVPGVGVPGVGVPGVGVPGVGVPGVGVPGVGVPGAGAGSGAGAGSGAGAGSGAGAGSGAGAGSGVGVPGVGVPGVGVPGVGVPGVGVPGVGVPGVGVPGVGVPGAGAGSGAGAGSGAGAGSGAGAGSGAGAGSGVGVPGVGVPGVGVPGVGVPGVGVPGVGVPGVGVPGVGVPGAGAGSGAGAGSGAGAGSGAGAGSGAGAGSGVGVPGVGVPGVGVPGVGVPGVGVPGVGVPGVGVPGVGVPGAGAGSGAGAGSGAGAGSGAGAGSGAGAGSGVGVPGVGVPGVGVPGVGVPGVGVPGVGVPGVGVPGVGVPGAGAGSGAGAGSGAGAGSGAGAGSGAGAGSGVGVPGVGVPGVGVPGVGVPGVGVPGVGVPGVGVPGVGVPGAGAGSGAGAGSGAGAGSGAGAGSGAGAGSGVGVPGVGVPGVGVPGVGVPGVGVPGVGVPGVGVPGVGVPGAGAGSGAGAGSGAGAGSGAGAGSGAGAGSGVGVPGVGVPGVGVPGVGVPGVGVPGVGVPGVGVPGVGVPGAGAGSGAGAGSGAGAGSGAGAGSGAGAGSGVGVPGVGVPGVGVPGVGVPGVGVPGVGVPGVGVPGVGVPGAGAGSGAGAGSGAGAGSGAGAGSGAGAGSGVGVPGVGVPGVGVPGVGVPGVGVPGVGVPGVGVPGVGVPGAGAGSGAGAGSGAGAGSGAGAGSGAGAGSGVGVPGVGVPGVGVPGVGVPGVGVPGVGVPGVGVPGVGVPGAGAGSGAGAGSGAGAGSGAGAGSGAGAGSGVGVPGVGVPGVGVPGVGVPGVGVPGVGVPGVGVPGVGVPGAGAGSGAGAGSGAGAGSGAGAGSGAGAGSMDPGRYQLSAGRYHYQLVWCQK
modifications: SELP 58
B3: SELP67K: SELP variant, 13 subunits (SEQ ID NO:30) (protein)
chain: MDPVVLQRRDWENPGVTQLNRLAAHPPFASDPMGVGVPGVGVPGVGVPGVGVPGKGVPGVGVPGVGVPGVGVPGAGAGSGAGAGSGAGAGSGAGAGSGAGAGSGAGAGSGVGVPGVGVPGVGVPGVGVPGKGVPGVGVPGVGVPGVGVPGAGAGSGAGAGSGAGAGSGAGAGSGAGAGSGAGAGSGVGVPGVGVPGVGVPGVGVPGKGVPGVGVPGVGVPGVGVPGAGAGSGAGAGSGAGAGSGAGAGSGAGAGSGAGAGSGVGVPGVGVPGVGVPGVGVPGKGVPGVGVPGVGVPGVGVPGAGAGSGAGAGSGAGAGSGAGAGSGAGAGSGAGAGSGVGVPGVGVPGVGVPGVGVPGKGVPGVGVPGVGVPGVGVPGAGAGSGAGAGSGAGAGSGAGAGSGAGAGSGAGAGSGVGVPGVGVPGVGVPGVGVPGKGVPGVGVPGVGVPGVGVPGAGAGSGAGAGSGAGAGSGAGAGSGAGAGSGAGAGSGVGVPGVGVPGVGVPGVGVPGKGVPGVGVPGVGVPGVGVPGAGAGSGAGAGSGAGAGSGAGAGSGAGAGSGAGAGSGVGVPGVGVPGVGVPGVGVPGKGVPGVGVPGVGVPGVGVPGAGAGSGAGAGSGAGAGSGAGAGSGAGAGSGAGAGSGVGVPGVGVPGVGVPGVGVPGKGVPGVGVPGVGVPGVGVPGAGAGSGAGAGSGAGAGSGAGAGSGAGAGSGAGAGSGVGVPGVGVPGVGVPGVGVPGKGVPGVGVPGVGVPGVGVPGAGAGSGAGAGSGAGAGSGAGAGSGAGAGSGAGAGSGVGVPGVGVPGVGVPGVGVPGKGVPGVGVPGVGVPGVGVPGAGAGSGAGAGSGAGAGSGAGAGSGAGAGSGAGAGSGVGVPGVGVPGVGVPGVGVPGKGVPGVGVPGVGVPGVGVPGAGAGSGAGAGSGAGAGSGAGAGSGAGAGSGAGAGSGVGVPGVGVPGVGVPGVGVPGKGVPGVGVPGVGVPGVGVPGAGAGSGAGAGSGAGAGSGAGAGSGAGAGSGAGAGSMDPGRYQDLRSHHHHHH
modifications: SELP 67K
B4: SELP47E: SELP variant, 13 subunits, lysine substituted by glutamic acid (protein)
chain: MDPVVLQRRDWENPGVTQLNRLAAHPPFASDPMGAGSGAGAGSGVGVPGVGVPGVGVPGVGVPGEGVPGVGVPGVGEPGVGVPGAGAGSGAGAGSGAGAGSGAGAGSGVGVPGVGVPGVGVPGVGVPGEGVPGVGVPGVGEPGVGVPGAGAGSGAGAGSGAGAGSGAGAGSGVGVPGVGVPGVGVPGVGVPGEGVPGVGVPGVGEPGVGVPGAGAGSGAGAGSGAGAGSGAGAGSGVGVPGVGVPGVGVPGVGVPGEGVPGVGVPGVGEPGVGVPGAGAGSGAGAGSGAGAGSGAGAGSGVGVPGVGVPGVGVPGVGVPGEGVPGVGVPGVGEPGVGVPGAGAGSGAGAGSGAGAGSGAGAGSGVGVPGVGVPGVGVPGVGVPGEGVPGVGVPGVGEPGVGVPGAGAGSGAGAGSGAGAGSGAGAGSGVGVPGVGVPGVGVPGVGVPGEGVPGVGVPGVGEPGVGVPGAGAGSGAGAGSGAGAGSGAGAGSGVGVPGVGVPGVGVPGVGVPGEGVPGVGVPGVGEPGVGVPGAGAGSGAGAGSGAGAGSGAGAGSGVGVPGVGVPGVGVPGVGVPGEGVPGVGVPGVGEPGVGVPGAGAGSGAGAGSGAGAGSGAGAGSGVGVPGVGVPGVGVPGVGVPGEGVPGVGVPGVGEPGVGVPGAGAGSGAGAGSGAGAGSGAGAGSGVGVPGVGVPGVGVPGVGVPGEGVPGVGVPGVGEPGVGVPGAGAGSGAGAGSGAGAGSGAGAGSGVGVPGVGVPGVGVPGVGVPGEGVPGVGVPGVGEPGVGVPGAGAGSGAGAGSGAGAGSGAGAGSGVGVPGVGVPGVGVPGVGVPGEGVPGVGVPGVGEPGVGVPGAGAGSGAGAGSGAGAMDPGRYQDLRSHHHHHH
modifications: SELP 47E-13
notes: SELP variant, 13 subunits, lysine substituted by glutamic acid
B5: SELP47K-3: SELP variant, 3 subunits, no lysine substitution (SEQ ID NO:27) (protein)
chain: MDPVVLQRRDWENPGVTQLNRLAAHPPFASDPMGAGSGAGAGSGVGVPGVGVPGVGVPGVGVPGKGVPGVGVPGVGVPGVGVPGAGAGSGAGAGSGAGAGSGAGAGSGVGVPGVGVPGVGVPGVGVPGKGVPGVGVPGVGVPGVGVPGAGAGSGAGAGSGAGAGSGAGAGSGVGVPGVGVPGVGVPGVGVPGKGVPGVGVPGVGVPGVGVPGAGAGSGAGAGSGAGAMDPGRYQDLRSHHHHHH
modifications: SELP-47K-3
B6: SELP47R-3: SELP variant, 3 subunits, lysine substituted by arginine (SEQ ID NO:26) (protein)
chain: MPPVVLQRRDWENPGVTQLNRLAAHPPFASDPMGAGAGSGAGAGSGVGVPGVGVPGVGVPGVGVPGRGVPGVGVPGVGVPGVGVPGAGAGSGAGAGSGAGAGSGAGAGSGVGVPGVGVPGVGVPGVGVPGRGVPGVGVPGVGVPGVGVPGAGAGSGAGAGSGAGAGSGAGAGSGVGVPGVGVPGVGVPGVGVPGRGVPGVGVPGVGVPGVGVPGAGAGSGAGAGSGAGAMDPGRYQDLRSHHHHHH
modifications: SELP 47R-3

Assay: Isoelectric point determination (IEF gel)
Assay type: physicochemical
Details: SELP variants, Table 2
Experimental: In this Example, experiments performed to determine the isoelectric point and cloud point of SELP47K (Example 1) are described. The isoelectric point of SELP47K was determined by electrophoresing 5 mg/ml SELP47K solution using Isoelectric Focusing Electrophoresis (IEF) gel and Novex electrophoresis apparatus along with protein standards markers.

First: B1
Second: B2
The “Isoelectric Point” value of the first is lower: 5.9 for the first, 6.7 for the second.

Compared with B3, B4 is lower in “Isoelectric Point” value: 10.53 for the first, 4.16 for the second.

Going from B5 to B6, the “Isoelectric Point” value rises from 9.52 to 10.5.
